{
  "source": "paper PMC10110466",
  "about": "(Nature biotechnology, 2022)",
  "molecular_target": "T1, soluble human IL-2Rβγ complex (human, UniProt P31785 23-262; P14784 27-240, biotin)",
  "T1 sequence (looked up) 1": "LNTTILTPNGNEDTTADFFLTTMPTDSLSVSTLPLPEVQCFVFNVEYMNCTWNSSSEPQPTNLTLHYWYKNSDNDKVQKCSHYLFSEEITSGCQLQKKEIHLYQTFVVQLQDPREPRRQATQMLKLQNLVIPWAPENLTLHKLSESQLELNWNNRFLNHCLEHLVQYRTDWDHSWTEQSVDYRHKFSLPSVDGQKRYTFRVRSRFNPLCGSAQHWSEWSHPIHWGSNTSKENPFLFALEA",
  "T1 sequence (looked up) 2": "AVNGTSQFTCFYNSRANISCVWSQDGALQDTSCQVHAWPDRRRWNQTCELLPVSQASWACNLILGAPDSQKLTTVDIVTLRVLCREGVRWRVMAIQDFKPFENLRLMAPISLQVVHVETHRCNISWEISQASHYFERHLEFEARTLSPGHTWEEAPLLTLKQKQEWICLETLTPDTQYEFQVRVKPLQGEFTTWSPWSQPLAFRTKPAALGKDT",
  "experiment": "cell-based or functional assay",
  "data": [
    {"binder": "PKKKIQLHAEHALYDALMILNIVKTNS", "note": "[Neo2A]", "values": [
      {"measurement": "STAT5 phosphorylation in YT-1 human NK cells, EC50", "result": "> 40", "unit": "µM"}
    ]}
  ]
}
